Experimental data as given in the supplement of paper PMC9170038.

What was measured:
MS2 coat protein = experiment: apparent KD of MS2 coat protein; higher = weaker reporter binding; conditions: Eterna round: R107
Protocol: (§1)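 RNA-MaP round R107: designed RNA switches with theophylline, tryptophan, arginine or FMN aptamers are transcribed on-chip within common flanks. They are titrated with SNAP-549-labelled MS2 coat protein in RNA-MaP buffer (100 mM Tris pH 7.5, 80 mM KCl, 4 mM MgCl2), without ligand or with the indicated ligand. Median apparent KD per design.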

[1] = system: K4 kissing-loop RNA reporter; experiment: apparent KD of K4 kissing-loop reporter; higher = weaker reporter binding; conditions: Eterna round: R107;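 also: bound reporter read as fluorescence of individual clusters on recovered sequencing chips by microscopy, with normalized cluster intensities fitted with a binding model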
Protocol: as §1, with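 “a labelled K4 kissing-loop RNA reporter” for “SNAP-549-labelled MS2 coat protein”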

[2] = input ligand: theophylline 20 uM
[3] = input ligand: tryptophan 2.4 mM
[4] = input ligand: theophylline 2 mM

Row | Sequence | apparent KD of MS2 coat protein (MS2 coat protein; input ligand: arginine 13.2 mM) | apparent KD of MS2 coat protein (MS2 coat protein; [2]) | apparent KD of MS2 coat protein (MS2 coat protein; [3]) | apparent KD of MS2 coat protein (MS2 coat protein; input ligand: none) | apparent KD of MS2 coat protein (MS2 coat protein; [4]) | apparent KD of K4 kissing-loop reporter ([1]; input ligand: FMN 200 uM) | apparent KD of K4 kissing-loop reporter ([1]; input ligand: arginine 13.2 mM) | apparent KD of K4 kissing-loop reporter ([1]; input ligand: none) | apparent KD of K4 kissing-loop reporter [1, 2] | apparent KD of K4 kissing-loop reporter [1, 3]
1 | ACGGAGAUUGCUAAAUGUUGGCGAGCGGAUACCAGCCUAUUAUUGGGCCCUUGGCAGCCGACAUGAGGAUCACCCAUGUAAACAA [Berere] | 9.36 nM | 90.8 nM | 76.7 nM |  |  |  |  |  |  | 
2 | ACAUGAGGAUCACCCAUGUAAUUAACAGAAGGAGCGUGAUGGAUCACAGGUAGGUCGCUGUACUUAGAAAUAACUCUCAUGAAUA [JR_Nu_SSArginiA_Sub024] | 15.2 nM | 27.6 nM | 17.1 nM | 18.2 nM | 16.6 nM |  |  |  |  | 
3 | AAGGUGAUCCCAGAUACCAGCCUAACAUGAGGAUCACCCAUGUUUGGGACGAAAGUCCCAGGCCCUUGGCAGCUGGGUUGCCAAG [SSTheo B #17] | 48.8 nM | 131 nM | 185 nM |  |  |  |  |  |  | 
4 | GGUACAUGAGGAUCACCCAUGUAUGCGAGCCGAGGACCGGUACGGCCGCCACUCGCUUAACAUGAGGAUCACCCAUGUUUCUCGG [SSTA DOUBLE!!! :-D #15] | 90.9 nM | 157 nM | 108 nM | 94.9 nM | 120 nM |  |  |  |  | 
5 | AAUUGGGUUGGUGAGGUGGUUGGAGGCGAUACCAGCGUGGAAACACGCCCUUGGCAGCGCCAGGACAUGAGGAUCACCCAUGUAA [Praha] | 32.1 nM | 486 nM | 205 nM | 260 nM | 713 nM |  |  |  |  | 
6 | CGUCGAGACUGAAGGAGCGAGAUAACAACAUUGGGUCUCAACACAUGAGGAUCACCCAUGUCUCAGGUAGGUCGCGGUGUCACCG [Exclusion Arginine B GF21] | 142 nM | 211 nM | 132 nM | 195 nM | 150 nM |  |  |  |  | 
7 | ACACAUGAGGAUCACCCAUGUGCGCUGGAAGGAGCGCAGAAUCAUGCAGGUAGGUCGCCAGUGCCCAUUACUAGAGGGAUAAGAG [Onriri] | 44.5 nM | 101 nM | 64.6 nM | 75.8 nM | 102 nM |  |  |  |  | 
8 | UGACAUUGCUCAGAUACCAGACAUGAGGAUCACCCAUGUACCAAGAAAACGUACAAUAAUGUCCCUUGGCAGCUGAGCAAUGUCU [TheoBX 9 #MS2Left #Theo2] | 64.8 nM | 180 nM | 93.6 nM |  |  |  |  |  |  | 
9 | GCUAGUGGCAGAAGGAGCGACAUUAAAAGUGGUCGAUACAUGAGGAUCACCCAUGUACUAUGUCAGGUAGGUCGCUGCCACUAGC [EAB NP+V+V2 #4 +-Same Structure] | 27.8 nM | 39.1 nM | 30.7 nM | 30.7 nM | 36.6 nM |  |  |  |  | 
10 | ACCUCAAUGGAUGAUACCAGCUCAAGGACGAACAUGAGGAUCACCCAUGUGACGUGGUGUAGCCCUUGGCAGCAUACUGACACCU [theeternabot_sameState_MS2_Theo_B_24] | 34.6 nM | 49 nM | 39.1 nM |  |  |  |  |  |  | 
11 | CUGUACAUCUCGGCCGCCACUGACAUGAGGAUCACCCAUGUAGUGCCGAUGAGAGACUUAUCGGCCAGGACCGGGAGGUGUGCAG [SSTryp B #32] | 7.57 nM | 10.1 nM | 11.9 nM | 9.94 nM | 7.83 nM |  |  |  |  | 
12 | AGUACUCGAACGGAUACCAGCCGGACAUGAGGAUCACCCAUGUCCUACCAUGUCUCGGUUGGCCCUUGGCAGCCGUUCGUGUACA [Omei Theo B SS A v2] | 17 nM | 469 nM | 95.8 nM |  |  |  |  |  |  | 
13 | UGUAUGGACUGAAGGAGCGCCUCAAAAUAACUUGAGGAUCACCCAAGUAAGGCGAAAGCCGGGCAGGUAGGUCGCAGUCCAUACU [ArgBX 3] | 24.1 nM | 28.1 nM | 12.4 nM | 10.6 nM | 15.2 nM |  |  |  |  | 
14 | AAAAGAGGUGGAAGGAGCGGGAGACAUGAGGAUCACCCAUGUGAAGUUACGAAAGGUUCAGCCCAGGUAGGUCGCCAUGUCGAAA [eefemullin] | 1.33 nM | 55.1 nM | 33.7 nM | 17.5 nM | 58.8 nM |  |  |  |  | 
15 | GAUGAACUAUUUGAUACCAGACUACAUGAGGAUCACCCAUGUGAGUUUCGUCCUCUGCCAGUCCCUUGGCAGCAAAUAGUUUAUC [XTheo B #8] | 15.8 nM | 36.7 nM | 14.3 nM |  |  |  |  |  |  | 
16 | GGGCCUAUUGAUGCUGGAGUAAUUCUGGAAGGAGCGCUCAAAGGAGCAGGUAGGUCGCCAGUAUACAAGGGCAGUGAUGUUGCCC [Entimalati] |  |  |  |  |  | 143 nM | 162 nM | 161 nM | 146 nM | 142 nM
17 | UUGUUUCCGACGGCCGCCACUGGUUUCUUUGUUGUAGUGAUGUUGCGGUGGAAUGAUAGCGUUAACAGGACCGGGUCGGUGAGAC [theeternabot_sameState_KL_Trp_B_42] |  |  |  |  |  | 1280 nM | 547 nM | 774 nM | 580 nM | 451 nM
18 | UAUUGAGUGAUGUUCGAUAACCAAUCAGAUACCAGUUUUGUAGAAAACCCUUGGCAGCUGCUCAGCUCUAUAAUGCUUCGCCCUU [theeternabot_sameState_KL_Theo_A_18] |  |  |  |  |  | 199 nM | 169 nM | 208 nM | 184 nM | 177 nM
19 | GGUCUGCCGCAGUGAUGUUGCUGGCAUACACGAGGACCGGUACGGCCGCCACUCGAUGCUCCAAGAACCACCAAUCUUCGGUAUC [theeternabot_sameState_KL_Trp_A_48] |  |  |  |  |  | 257 nM | 235 nM | 229 nM | 236 nM | 236 nM
20 | CGUUUAUAGCAGGAUACCAGUGCGGAUAAGGUGCGUUAAUAGUAGAGUGAUGUUCUAAAGUACCCUUGGCAGCUUAGAGUGAGUG [#21 K4 Theophylline B Exclusion] |  |  |  |  |  | 202 nM | 144 nM | 145 nM | 273 nM | 108 nM
21 | UGUUAUGGGUGAGGAUAUGCUGACGAUGCGGGUGCGAGUGAUGUUGGUGUGGCUGGUGUCGUUUGUGCAGAAGGCACGCUCGUGG [BDazzled] |  |  |  |  |  | 879 nM | 522 nM | 934 nM | 846 nM | 811 nM
